Experimental data: IntAct's records for PubMed 18256029

B1: Programmed cell death protein 6 (Homo sapiens), O75340 (parent)
chain: MAAYSYRPGPGAGPGPAAGAALPDQSFLWNVFQRVDKDRSGVISDTELQQALSNGTWTPFNPVTVRSIISMFDRENKAGVNFSEFTGVWKYITDWQNVFRTYDRDNSGMIDKNELKQALSGFGYRLSDQFHDILIRKFDRQGRGQIAFDDFIQGCIVLQRLTDIFRRYDTDQDGWIQVSYEQYLSMVFSIV
partner: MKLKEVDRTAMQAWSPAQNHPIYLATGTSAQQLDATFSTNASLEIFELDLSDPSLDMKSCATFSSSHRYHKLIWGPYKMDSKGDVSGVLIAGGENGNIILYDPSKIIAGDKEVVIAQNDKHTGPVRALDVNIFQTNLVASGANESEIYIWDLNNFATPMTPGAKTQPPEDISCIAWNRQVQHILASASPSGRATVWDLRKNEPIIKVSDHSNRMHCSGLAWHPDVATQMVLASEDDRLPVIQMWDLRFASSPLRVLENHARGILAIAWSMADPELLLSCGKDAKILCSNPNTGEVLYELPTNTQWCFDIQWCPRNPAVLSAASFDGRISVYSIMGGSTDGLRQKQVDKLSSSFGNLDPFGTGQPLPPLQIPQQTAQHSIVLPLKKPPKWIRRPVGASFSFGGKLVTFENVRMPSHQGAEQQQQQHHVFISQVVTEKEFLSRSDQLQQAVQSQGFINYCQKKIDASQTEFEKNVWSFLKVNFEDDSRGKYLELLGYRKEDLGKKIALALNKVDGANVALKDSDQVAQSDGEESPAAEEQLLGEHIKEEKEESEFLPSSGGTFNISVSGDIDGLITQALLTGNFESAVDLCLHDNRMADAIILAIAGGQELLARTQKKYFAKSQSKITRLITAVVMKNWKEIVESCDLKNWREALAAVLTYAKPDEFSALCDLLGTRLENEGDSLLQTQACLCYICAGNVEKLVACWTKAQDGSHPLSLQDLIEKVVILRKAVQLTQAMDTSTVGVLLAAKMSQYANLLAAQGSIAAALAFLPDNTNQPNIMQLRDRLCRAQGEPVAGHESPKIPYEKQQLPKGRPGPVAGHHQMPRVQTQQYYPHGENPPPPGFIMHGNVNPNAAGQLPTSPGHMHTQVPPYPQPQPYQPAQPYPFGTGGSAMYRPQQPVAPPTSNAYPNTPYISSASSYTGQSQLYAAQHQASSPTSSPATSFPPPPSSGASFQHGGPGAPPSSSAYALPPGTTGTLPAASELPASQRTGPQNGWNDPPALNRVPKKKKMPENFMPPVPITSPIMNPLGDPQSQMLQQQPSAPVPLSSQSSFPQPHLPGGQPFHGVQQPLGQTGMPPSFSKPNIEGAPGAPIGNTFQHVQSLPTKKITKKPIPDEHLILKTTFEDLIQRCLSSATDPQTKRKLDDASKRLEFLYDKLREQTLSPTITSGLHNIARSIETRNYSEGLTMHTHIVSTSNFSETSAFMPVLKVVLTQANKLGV
B2: Programmed cell death protein 6 (Homo sapiens), O75340 (parent)
chain: B1 chain
B3: Programmed cell death protein 6 (Homo sapiens), O75340 (parent)
chain: B1 chain
partner: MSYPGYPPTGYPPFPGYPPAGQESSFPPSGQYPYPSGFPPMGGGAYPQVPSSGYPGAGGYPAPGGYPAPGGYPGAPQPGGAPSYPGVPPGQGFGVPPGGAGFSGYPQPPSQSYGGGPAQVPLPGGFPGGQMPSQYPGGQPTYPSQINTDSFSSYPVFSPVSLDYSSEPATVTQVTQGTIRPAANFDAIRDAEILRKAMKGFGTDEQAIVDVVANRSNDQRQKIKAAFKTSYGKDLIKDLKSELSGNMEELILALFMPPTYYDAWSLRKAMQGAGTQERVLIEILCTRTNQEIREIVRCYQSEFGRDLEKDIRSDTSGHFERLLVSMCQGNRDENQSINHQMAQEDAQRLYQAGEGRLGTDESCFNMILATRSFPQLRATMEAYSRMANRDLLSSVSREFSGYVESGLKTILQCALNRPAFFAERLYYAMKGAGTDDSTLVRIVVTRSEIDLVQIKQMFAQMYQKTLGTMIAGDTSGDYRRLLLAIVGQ
B4: Programmed cell death protein 6 (Homo sapiens), O75340 (parent)
chain: B1 chain
partner: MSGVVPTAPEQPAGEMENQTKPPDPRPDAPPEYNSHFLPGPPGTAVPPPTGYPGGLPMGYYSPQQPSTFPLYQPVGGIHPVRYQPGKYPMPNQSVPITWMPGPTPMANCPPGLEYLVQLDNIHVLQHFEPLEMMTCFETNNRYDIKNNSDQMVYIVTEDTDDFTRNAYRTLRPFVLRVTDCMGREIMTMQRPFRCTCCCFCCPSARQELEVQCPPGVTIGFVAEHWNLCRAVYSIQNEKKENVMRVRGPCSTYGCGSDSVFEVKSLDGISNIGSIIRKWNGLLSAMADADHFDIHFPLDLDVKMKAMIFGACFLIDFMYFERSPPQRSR

Variants of: B1
Conditions: with sc31a_human SEC31A

Variant	effect of a mutation on the interaction
F60A	disrupting interaction

Variants of: B2
Conditions: with pls3_human PLSCR3, Q9NRY6
pls3_human PLSCR3, Q9NRY6, sequence (Q9NRY6 whole entry): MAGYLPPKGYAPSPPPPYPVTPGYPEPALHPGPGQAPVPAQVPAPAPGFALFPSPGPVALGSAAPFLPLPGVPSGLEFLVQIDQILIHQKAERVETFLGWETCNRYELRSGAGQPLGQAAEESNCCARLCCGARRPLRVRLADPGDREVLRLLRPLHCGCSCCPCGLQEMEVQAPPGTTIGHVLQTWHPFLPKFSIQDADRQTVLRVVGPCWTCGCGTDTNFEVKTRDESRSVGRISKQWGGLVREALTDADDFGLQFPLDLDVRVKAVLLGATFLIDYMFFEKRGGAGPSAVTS

Variant	effect of a mutation on the interaction
Y91A	disrupting interaction
F60A	disrupting interaction
W57A	decreasing interaction
W95A	disrupting interaction
Y180A	disrupting interaction

Variants of: B2
Conditions: with pdc6i_human PDCD6IP

Variant	effect of a mutation on the interaction
Y91A	disrupting interaction
F60A	disrupting interaction
W57A	decreasing interaction
W95A	disrupting interaction
Y180A	disrupting interaction

Variants of: B2
Conditions: with anx11_human ANXA11, P50995
anx11_human ANXA11, P50995, sequence (P50995 whole entry): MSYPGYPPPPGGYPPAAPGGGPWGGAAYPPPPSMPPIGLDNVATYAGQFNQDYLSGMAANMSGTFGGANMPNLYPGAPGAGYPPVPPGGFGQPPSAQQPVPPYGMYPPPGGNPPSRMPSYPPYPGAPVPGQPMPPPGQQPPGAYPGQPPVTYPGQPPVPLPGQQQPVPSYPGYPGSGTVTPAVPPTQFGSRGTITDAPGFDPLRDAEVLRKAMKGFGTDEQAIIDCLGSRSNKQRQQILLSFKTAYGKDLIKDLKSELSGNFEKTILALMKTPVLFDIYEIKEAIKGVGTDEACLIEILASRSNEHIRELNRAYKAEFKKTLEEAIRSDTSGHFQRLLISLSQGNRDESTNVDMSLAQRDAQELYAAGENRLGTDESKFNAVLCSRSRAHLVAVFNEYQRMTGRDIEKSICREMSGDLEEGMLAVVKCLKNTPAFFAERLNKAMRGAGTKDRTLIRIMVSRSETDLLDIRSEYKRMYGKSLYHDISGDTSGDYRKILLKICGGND

Variant	effect of a mutation on the interaction
Y91A	disrupting interaction
F60A	disrupting interaction
W57A	decreasing interaction
W95A	disrupting interaction
Y180A	disrupting interaction

Variants of: B2
Conditions: with ts101_human TSG101, Q99816
ts101_human TSG101, Q99816, sequence (Q99816 whole entry): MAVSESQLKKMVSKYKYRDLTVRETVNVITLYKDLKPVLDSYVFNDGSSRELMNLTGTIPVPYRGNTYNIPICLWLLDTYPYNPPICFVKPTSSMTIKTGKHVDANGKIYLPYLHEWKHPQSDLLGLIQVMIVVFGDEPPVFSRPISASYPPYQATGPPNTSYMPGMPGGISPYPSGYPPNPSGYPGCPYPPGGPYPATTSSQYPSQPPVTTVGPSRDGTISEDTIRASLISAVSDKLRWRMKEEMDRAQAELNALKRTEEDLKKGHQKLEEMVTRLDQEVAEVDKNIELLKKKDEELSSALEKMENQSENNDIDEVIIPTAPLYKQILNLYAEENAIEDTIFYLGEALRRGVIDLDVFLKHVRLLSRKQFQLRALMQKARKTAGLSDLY

Variant	effect of a mutation on the interaction
W95A	disrupting interaction
Y180A	disrupting interaction

Variants of: B2
Conditions: with pls3_human PLSCR3, Q9NRY6
Remark: another data set of the same source

Variant	effect of a mutation on the interaction
E47A;E114A	decreasing interaction

Variants of: B3
Conditions: with anxa7_human ANXA7, P20073

Variant	effect of a mutation on the interaction
Y180A	disrupting interaction
Y91A	disrupting interaction
W57A	decreasing interaction
W95A	disrupting interaction
F60A	disrupting interaction

Variants of: B4
Conditions: with pls4_human PLSCR4, Q9NRQ2

Variant	effect of a mutation on the interaction
E47A;E114A	decreasing interaction
